Protein production data for 14 sequences are collected here from a protein production outcome set (Wang et al. 2014).

A short description of this data set: label from the status in PepcDB records.
With “MSEVTRSLLQRWGASLRRGADFDSWGQLVEAIDEYQILARHLQKEAQAQHNNSEFTEEQKKTIGKIATCLELRSAALQSTQSQEEFKLEDLKKLEPILKNILTYNKEFPFDVQPI”, the protein production entry was “not failed”.
Take “MASEDKFESVLSTRYCKNSPLVSILSETNKATLWRQLWIWLAEAEKELGLKQVTQDAIDEMKSNRDVFDWPFIRSEERKLKHDVMAHNHAFGKLCPTAAGIIHLGATSCFVQDNADLIAYRDSIDHILKRFATVIDRLAAFSLKNKEVVTVGRTHYQTASLVTVGKRGVLWAQELLMAFQSLSEFRDKMRFRGIKGATGTQDSFLTLFAGDESKVEALDELVTKKANFSNRFLITGQTYSRQQDSQLVFSLSLLGAAAKKVCTDIRVLQAFGELLEPFEKDQIGSSAMPYKKNPMKSERCCALSRKLINAPQEALTILADQGLERTLDDSAGRRMLIPDVLLTAEALLTTLQNIFEGLSVQTDNVKKIVEDEIAFLGLEKAMMMLTEEGVDRQQAHAVIRKTALEAKQLQATQKVDIRQTMADPFFDSVRDRVVGLVNNPINFTGRCVSQTESFIAKELKPTIDKYLDKSAGNVQLDV”: the protein production entry was “not failed”.
Turning to “MEVKKVLVSAFLLTTCLMSGQAQRRNEIQVPDLDGYTTLKCDFHMHSVFSDGLVWPTVRVDEAYRDGLDAISLTEHIEYRPHKQDVVSDHNRSFDLCREQAEKLGILLIKGSEITRAMAPGHFNAIFLSDSNPLEQKDYKDAFREAKKQGAFMFWNHPGWDSQQPDTTKWWPEHTALYQEGCMHGIEVANGHLYMPEAIQWCLDKNLTMIGTSDIHQPIQTDYDFEKGEHRTMTFVFAKERSLQGIREALDNRRTAAYFHELLIGREDLLRPFFEKCVKIEEVSRNEQGVTLSITNVTDLVLKLKKTAHDTLLVYFRDMTLKPHTRYTVRIGFKQGIKGGDVNFEVTNFIVAPDKGLKYTISL”, the protein production result was “failed”.
As for “MSVSGQPVLRAAVVTLQGRREDNQDFAAIAEPSPRDAAARGFVAAVADGIGGARGGRVAAEVSVRSFMEAYYGLSETLGMQQLLDRCLGSANRWVHAMGRLDPELAHMGTTFSGLIFRGRRAYLVHVGDSRIYRLRGDEPELLTSDHTLSGPGLDHVLYRAVGLDPGLRIDYSVYPLEPHDRFLLCSDGLHGSLQQEQIREILQERATPETTAEALARLAFEQGSQDNITALVVDVIALPPAEKQSLRLAIESLPLLDLPEVGDEVDGFRLERLLSSGRYSALFLAADTLGQDKPVVVKFPHPRVASEREYYDAFVREAWIGARVKSPWVGEILEQTPGRQSRLYSVMPFYPGASLEHELARRPRIGLEAGIDLALKLCKAVHALHRQQIVHRDIKPDNVLLDPEGGLKLLDLGIARLPAWDEDQADPIPGTPSYMAPEMFQGERGSIATDVFALGVTLYRTFAGGAYPYGEVEPFSTPRFGSPRPLTAHRPDLPAWLDAVLARAIAADPAQRPADAVELAYELEAGLEKGGGRRPPRRPLPLYERNPLQFWKAVAALLLALLAMAGLRLSLSCRPPSEAASRNNPLIHDNGDSR”, the entry is “failed”.
As for “TSITPSSQDICRICHCEGDDESPLITPCHCTGSLHFVHQACLQQWIKSSDTRCCELCKYEFIMETKL”, the entry is “not failed”; as for “MNLVETAQAIEAGQVSLGIELGSTRIKAVLVTDDFNTIASGSYVWENRFEDGVWTYPLEEVWSGIQQSYTQMAADVQSKYHASLKHINAIGVSAMMHGYLAFDKNNELLVPFRTWRNNITGQSADELTKLFDFNIPQRWSIAHLYQAVLNDEDHVAKVDFITTLAGYVTWKLSGEKVLGVGDASGVFPIDEKTGSYDQAMLDKFSSLDNVKRYPWQIENILPSILPAGKIAGKLTADGANLLDASGNLEAGSVMAPPEGDAGTGMVGTNSVRKRTGNISVGTSAFSMNVLDKPLSKVYRDIDIVMTPDGSPVAMVHVNNCSSDINAWASIFSEFAARLGVDLKPDRLYETLFLESTKADANAGGLVNYSYQSGENITKIQAGRPLFVRTPNSKFSLPNFMLTQLYAAFAPLQIGMDILVNEEHVQTDVMIAQGGLFRTPVIGQQVLANALNIPITVMSTAGEGGPWGMAVLAAYAQRQTGANLEDFLDQEVFTNPESMTLSPEPAGVAGYQEFIKNYQAGLPVEAAAGEAISD”, “failed”.
As to “MQPILWILTLGISLNGVTSVTFLKQFNTSFLDFEIVGVPIIFALTIPLFGSFSSRLEFSNSTIYVVHLLSNRKIIYYFMGTDVIFYAIITFVNVLTVAGLSFILTSEGVNVIGLLAVLPLMLLGSLTSYSLGIIINSLFRNLSSPTSYLFSLIQVILILFSGVYYPLSYLPEYLRIIAFISPYSHLIALIRYILLGYNASDLNALWFYTLPYQVQVVLSISYVIVLGVILFILAGKRLVKGQGMVLL”, the protein production entry was “failed”.
For “MNIDLSAIFAQYEALVAETDALFERVRALHPDCVTCGLGCSDCCHAMFDLSLVEAMYLNGKFAASFDFGPERSAVLERASDADRHAYRIKRRMYRESEDGRPAEDILAEAARERVRCPLLGEGDACVLYAHRPITCRLYGIPTAIGGKGHTCGKTAFRAGEKYPTVAVDRIQDRLAALSKEIAVAVGSRFSELHQVYVPVSMALLTRYDDAYLGIGKPKRDD”, the protein production result is “failed”.
Take “MGEPFGGPLMGRLVSLLPSATDLIFELGLGEQLLGVSHCCDHPGAASLPVLTRSIIGSDLPQAEIDRAVSEAVRAGRALYTVDGPLLDRLRPDLVVTQGVCEVCAVTPGTVAEAVRFLPGCLPAEQVLSLEGKTFAGILADLRALARAAGVRERGEALAAESERRWNAIRPVGVQVPEPPRVLTLEWVDPPFYGGHWVPEQVAQAGGKDVLGHAGRDSGRTSWEDVVQLDPDVIVVMCCGYGLSDNAEFARQVLSHPELRAVRAGQVWGVDANAHFSRPSLGVVRGAEVLAALLRGEESAGESVRVRAELEHHHHHH”: the protein production result is “not failed”.
As for “MRKLDRVDMQLVKILSENSRLTYRELADILNTTRQRIARRIDKLKKLGIIRKFTIIPDIDKLGYMYAIVLIKSKVPSDADKVISEISDIEYVKSVEKGVGRYNIIVRLLLPKDIKDAENLISEFLQRIKNAENVEVILISEVRKFEII”, the entry is “not failed”.
As for “MFSIQQPLLVFSDLDGTLLDSHSYDWQPAAPWLTRLREANVPVILCSSKTSAEMLYLQKTLGLQGLPLIAENGAVIQLAEQWQEIDGFPRIISGISHGEISLVLNTLREKEHFKFTTFDDVDDATIAEWTGLSRSQAALTQLHEASVTLIWRDSDERMAQFTARLNELGLQFMQGARFWHVLDASAGKDQAANWIIATYQQLSGKRPTTLGLGDGPNDAPLLEVMDYAVIVKGLNREGVHLHDEDPARVWRTQREGPEGWREGLDHFFSAR”, the protein production result was “not failed”.
The same measure for “MRNGRLLEACDDIPEEDIPSRRYEASMCYLRGLCYAKQNAFDRAKEAYKDALRIDVQCFEAFSQLVKNSLMSPDEEDEFMQSLAFDSIRAPGDDPDMEDEPADYVHMLYQTQLSKYRNPQAFNTAIESLSTHYGLENNADILLAKADLLYTQCRFKDALAITESILMDDKYNFAVYPIHLACLYELRKTNVLFLIAHELADTHPDEPCTWLAVGIYYFTTGKIADARRYFSKASMMDANFGPAWIGFAHTFAAEGEHDQAVTAYSTAARLFTGTHLPQVFLGMQNHAMNNMTAAEEFLKTAYSLCKTDPLLLNEMGIVLYHQDRLKEAVKMFDQVMAFGTAEMSRASEKRRMETMLSKLLQSLRPSTTSAIFSRRSTILPL”: “failed”; for “MASYYSGFLGCEEPHFLESCSLCRKHLGLNSDIFMYRGDKAFCSNECREEQIESDEAKERKWKKSSRSLRKNSSETKESAAGNTVRTGTLVVA”: “failed”; for “MSQSQLLQKLASRLPLGVCVVDEHYQIIYWNEFFTDRLPTAKSDTQENNLLTLFPEAAKFLQKKINSVFVLNNASFSYWEHRPHVFDFSSSRPITGEETAMYQNIEFFPLDIEDHQVKTVCLIVQDVTELASYYQAQKCLSEQLEQEHTALSLLNKKLEAAQNQLLQSEKMVAIGQLAAGVAHEINNPIGFVNSNLQSLQDYNNKLLKLLNFYQKLTHKIGSVPYFTLEQDMLKRYQFEFICSDLPDLIRESIEGLDRVAVIVKSLKSFSHVDSSEWQYANVIEGIENTLKIAANQIKYKAVVLRNFQDNLPELYCQPMQLNQVFLNLLVNAAQAIEERGEISIDVSASDAEFIIVIRDTGSGIAASDLRKIFEPFYTTKLVGTGTGLGLSLSYSIVQKHKGEIKVSSVLGEGTAFTVILPILSPEDVA”: “failed”.
